Residue numbers refer to the chain shown, from its start. Names may count otherwise.
T1: recombinant FLAG5, His6-tagged GINS (Psf1, Psf2, Psf3 and Sld5) (Xenopus laevis, UniProt Q7ZT47 1-196; Q7ZT46 1-185; Q7ZT01 1-210; Q7ZT48 1-221)
T1 construct: Psf1, subunit of GINS, Xenopus laevis; Psf2, subunit of GINS, Xenopus laevis; Psf3, subunit of GINS, Xenopus laevis; Sld5, subunit of GINS, Xenopus laevis; also called recombinant GINS; FLAG-tagged GINS; copies: + + +
T1 sequence (looked up) 1: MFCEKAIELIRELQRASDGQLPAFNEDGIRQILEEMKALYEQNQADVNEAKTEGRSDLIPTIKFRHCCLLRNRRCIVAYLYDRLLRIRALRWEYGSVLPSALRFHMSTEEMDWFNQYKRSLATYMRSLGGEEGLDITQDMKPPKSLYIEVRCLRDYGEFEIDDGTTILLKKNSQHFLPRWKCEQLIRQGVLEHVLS
T1 sequence (looked up) 2: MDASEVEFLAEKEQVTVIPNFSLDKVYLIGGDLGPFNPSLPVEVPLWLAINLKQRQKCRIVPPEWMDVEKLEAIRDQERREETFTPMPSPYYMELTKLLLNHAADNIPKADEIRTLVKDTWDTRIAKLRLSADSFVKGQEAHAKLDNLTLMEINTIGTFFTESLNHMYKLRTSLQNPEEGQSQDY
T1 sequence (looked up) 3: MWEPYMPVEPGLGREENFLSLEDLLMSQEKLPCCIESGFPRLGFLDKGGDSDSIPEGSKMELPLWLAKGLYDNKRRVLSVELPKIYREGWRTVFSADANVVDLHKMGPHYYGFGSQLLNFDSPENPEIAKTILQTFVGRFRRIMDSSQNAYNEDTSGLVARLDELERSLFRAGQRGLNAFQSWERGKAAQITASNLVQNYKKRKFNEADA
T1 sequence (looked up) 4: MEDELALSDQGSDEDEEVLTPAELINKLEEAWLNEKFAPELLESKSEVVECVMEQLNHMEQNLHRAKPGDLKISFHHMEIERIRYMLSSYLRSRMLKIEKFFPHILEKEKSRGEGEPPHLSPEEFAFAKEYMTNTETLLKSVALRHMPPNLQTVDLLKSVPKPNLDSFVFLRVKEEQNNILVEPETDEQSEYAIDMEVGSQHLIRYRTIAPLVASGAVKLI

B1: recombinant Xenopus laevis DONSON WT (natural protein)
chain: MAELLPGYSPSFKKPSEILRLSRRRSRSEASKTGLSPFSPGDVIKRVPGLRPFSPGPNKGAGVKRRNPFASLENTVCSPVKRRAETVAEYGAASLEPRALSAVRPSCLGQDSPEPPQFNSVEDVIWGDPLAADADPLVKTESPEKPAPACEIPKGSVTFPADWSLKTRLLFTSSHSFSWADHLKAQEEAQGLVMQCRATAVNLPHSIQEPKLSTDLRCAFQQSLVHWIHPSLPWVQLFPRIGVDRKMAGKNTPWSQDESLQQVLMSEWALSFTSLYNLLKAKLCPYFYVCTYQFTVLFRAAGLAGSDVITAVMSPTTRGLREAMKNEGITFSQPLVEDDTGKKQKKPEAASQGDINPEKENGTAEADEASDESDEDESFSWLEEMGVEDKIKKPDSISIKLRKEKNEVKLDHKPESVVLVKGTNTFTLLNFLINCKSIVAAAGLQAGLPPTLLSPVAFRGATMHALKARSVNVKTRVNSGYKDQFSLEITGPIMPHSLHSLTMLLQSAQRGSFSAGLYTHEPTAVFNTPIHSQAVKEISADLQNCGLHPCTVEQLTQVNELGKLSLRHLEMTDYRYTWK
notes: DONSON (Downstream neighbor of Son), Xenopus laevis; also called WT DONSON; WT recombinant DONSON; source: E. coli BL21 (DE3), purified (Ni-NTA)
B2: DONSON 3A (V473A; R476A; Y481A) (natural protein, Xenopus laevis)
chain: B1 chain with V473A, R476A, Y481A
notes: DONSON, Xenopus laevis; also called pET28a-DONSON-3A; source: E. coli BL21 (DE3), purified (Ni-NTA)
B3: DONSON ΔD1 (Δ1-155) (domain or fragment, Xenopus laevis, UniProt Q5U4U4 156-579, looked up)
chain: SVTFPADWSLKTRLLFTSSHSFSWADHLKAQEEAQGLVMQCRATAVNLPHSIQEPKLSTDLRCAFQQSLVHWIHPSLPWVQLFPRIGVDRKMAGKNTPWSQDESLQQVLMSEWALSFTSLYNLLKAKLCPYFYVCTYQFTVLFRAAGLAGSDVITAVMSPTTRGLREAMKNEGITFSQPLVEDDTGKKQKKPEAASQGDINPEKENGTAEADEASDESDEDESFSWLEEMGVEDKIKKPDSISIKLRKEKNEVKLDHKPESVVLVKGTNTFTLLNFLINCKSIVAAAGLQAGLPPTLLSPVAFRGATMHALKARSVNVKTRVNSGYKDQFSLEITGPIMPHSLHSLTMLLQSAQRGSFSAGLYTHEPTAVFNTPIHSQAVKEISADLQNCGLHPCTVEQLTQVNELGKLSLRHLEMTDYRYTWK
notes: DONSON, Xenopus laevis, without residues 1-155 (the unstructured D1 loop); also called DONSON DD1 (D1-155); pET28a-DONSON ΔD1; source: recombinant (pET28a vector)
B4: DONSONΔ24 (truncation of residues 1–24) (domain or fragment, Xenopus laevis, UniProt Q5U4U4 25-579, looked up)
chain: RSRSEASKTGLSPFSPGDVIKRVPGLRPFSPGPNKGAGVKRRNPFASLENTVCSPVKRRAETVAEYGAASLEPRALSAVRPSCLGQDSPEPPQFNSVEDVIWGDPLAADADPLVKTESPEKPAPACEIPKGSVTFPADWSLKTRLLFTSSHSFSWADHLKAQEEAQGLVMQCRATAVNLPHSIQEPKLSTDLRCAFQQSLVHWIHPSLPWVQLFPRIGVDRKMAGKNTPWSQDESLQQVLMSEWALSFTSLYNLLKAKLCPYFYVCTYQFTVLFRAAGLAGSDVITAVMSPTTRGLREAMKNEGITFSQPLVEDDTGKKQKKPEAASQGDINPEKENGTAEADEASDESDEDESFSWLEEMGVEDKIKKPDSISIKLRKEKNEVKLDHKPESVVLVKGTNTFTLLNFLINCKSIVAAAGLQAGLPPTLLSPVAFRGATMHALKARSVNVKTRVNSGYKDQFSLEITGPIMPHSLHSLTMLLQSAQRGSFSAGLYTHEPTAVFNTPIHSQAVKEISADLQNCGLHPCTVEQLTQVNELGKLSLRHLEMTDYRYTWK
notes: DONSON, Xenopus laevis, without residues 1-24; See the note of m17 on a possible Myc tag; also called DONSON D24 (D1-24); pET28a-DONSON Δ24 (1-24 removed); source: E. coli BL21 (DE3), purified (Ni-NTA)
B5: DONSON DEW (D374A; E377A; W381A) (natural protein, Xenopus laevis)
chain: B1 chain with D374A, E377A, W381A
notes: DONSON, Xenopus laevis; also called pET28a-DONSON-DEW; source: E. coli BL21 (DE3), purified (Ni-NTA)
B6: DONSON S437A (natural protein, Xenopus laevis)
chain: B1 chain with S437A
notes: DONSON, Xenopus laevis; also called DONSON Ser437Ala; pET28a-DONSON-S437A; source: E. coli BL21 (DE3), purified (Ni-NTA)
B7: DONSON DEWS (D374A; E377A; W381A; S437A) (natural protein, Xenopus laevis)
chain: B1 chain with D374A, E377A, W381A, S437A
notes: DONSON, Xenopus laevis; also called pET28a-DONSON-DEWS; source: E. coli BL21 (DE3), purified (Ni-NTA)

Target: DONSON WM (W234L; M463T) (Xenopus laevis) (UniProt Q5U4U4)
Assay: mass photometry; protein concentration varied (Figure S7); DONSON WM at 20 nM; monomer to dimer
Details: not given

Row | Molecule | stoichiometry N
1 | DONSON WM (W234L; M463T) (from UniProt Q5U4U4 1-579) (natural protein) | 2

Target: T1, recombinant FLAG5, His6-tagged GINS …
Assay: co-IP; recombinant FLAG-tagged GINS immunoprecipitated after incubation with recombinant DONSON variants; blot with an anti-DONSON antibody (Figure S5B)
Details: both partners purified

Row | Molecule | binding result
2 | B1 | binds
3 | B2 | binds

Target: the molecule itself
Assay: mass photometry; recombinant DONSON proteins diluted ten-fold into Dulbecco PBS to a final concentration of 3 to 5 nM; TwoMP (Refeyn); monomer to dimer
Details: not given

Row | Molecule | stoichiometry N
4 | B1 | 2
5 | B2 | 2
6 | B3 | 2
7 | B4 | 2
8 | B5 | 2
9 | B6 | 2
10 | B7 | 2

Reference: paper PMC7616792, “The structural mechanism of dimeric DONSON in replicative helicase activation” (Molecular cell, 2023)
